Experimental data reported in patent publication US20240417704.

What was measured:
[1] = molecular target: Hel308 Mbu-E284Faz E284Faz (Methanococcoides burtonii) (UniProt Q12WZ6); settings: four nitroindoles between SEQ 155 3' end and SEQ 154 5' end; percent of movements reaching polyT; nanopore; 960 mM KCl, 10 mM MgCl2, 1 mM ATP, +120 mV
[2] = molecular target: Hel308 Mbu-E284Faz heat treated E284Faz (Methanococcoides burtonii) (UniProt Q12WZ6); settings: four nitroindoles between SEQ 155 3' end and SEQ 154 5' end; percent of movements reaching polyT; 500 nM enzyme; nanopore; 960 mM KCl, 10 mM MgCl2, 1 mM ATP
Chain of Hel308 Mbu-E284Faz heat treated E284Faz (Methanococcoides burtonii) (Q12WZ6 whole entry): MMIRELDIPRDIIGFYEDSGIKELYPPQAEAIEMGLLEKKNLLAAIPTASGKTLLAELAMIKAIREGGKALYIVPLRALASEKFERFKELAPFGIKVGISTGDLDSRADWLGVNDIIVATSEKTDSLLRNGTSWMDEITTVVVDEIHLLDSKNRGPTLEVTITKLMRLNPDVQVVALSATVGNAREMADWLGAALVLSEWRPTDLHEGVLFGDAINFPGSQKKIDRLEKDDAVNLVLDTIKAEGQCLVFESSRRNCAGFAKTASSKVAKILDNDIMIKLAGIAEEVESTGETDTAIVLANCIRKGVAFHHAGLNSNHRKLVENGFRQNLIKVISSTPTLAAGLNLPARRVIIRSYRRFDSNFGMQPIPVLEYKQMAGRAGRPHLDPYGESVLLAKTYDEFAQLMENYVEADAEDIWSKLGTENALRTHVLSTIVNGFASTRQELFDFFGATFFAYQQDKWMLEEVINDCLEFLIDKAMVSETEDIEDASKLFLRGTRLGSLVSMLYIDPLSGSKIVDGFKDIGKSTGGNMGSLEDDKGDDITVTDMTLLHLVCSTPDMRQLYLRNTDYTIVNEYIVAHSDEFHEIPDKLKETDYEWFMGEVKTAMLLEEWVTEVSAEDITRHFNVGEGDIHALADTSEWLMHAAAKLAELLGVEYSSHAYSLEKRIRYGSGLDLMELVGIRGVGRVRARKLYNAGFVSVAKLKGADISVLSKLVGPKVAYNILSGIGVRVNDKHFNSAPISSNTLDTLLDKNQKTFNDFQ

Chain of Hel308 Mbu-E284Faz E284Faz (Methanococcoides burtonii) (Q12WZ6 whole entry): as above

3.6 kb DNA
activity [1]: 28%
activity [2]: 71%
